Data taken from PMC9482650, “Quantitative fragmentomics allow affinity mapping of interactomes” (Nature Communications, 2022).

T1: TJP3_3, O95049
T1 sequence (O95049 375-456, limits assumed, looked up): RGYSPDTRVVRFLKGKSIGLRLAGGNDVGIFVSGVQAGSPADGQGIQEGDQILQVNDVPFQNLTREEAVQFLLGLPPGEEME

T2: APBA1_1, Q02410
T2 sequence (Q02410 651-752, limits assumed, looked up): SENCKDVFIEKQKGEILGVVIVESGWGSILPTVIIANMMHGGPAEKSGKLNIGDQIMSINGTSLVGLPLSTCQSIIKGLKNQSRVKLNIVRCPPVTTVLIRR

T3: GRIP1_7, Q9Y3R0
T3 sequence (Q9Y3R0 999-1096, limits assumed, looked up): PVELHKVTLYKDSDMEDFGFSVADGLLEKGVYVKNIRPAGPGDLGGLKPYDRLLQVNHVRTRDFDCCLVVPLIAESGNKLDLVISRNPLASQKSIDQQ

T4: RAPGEF6, Q8TEU7
T4 sequence (Q8TEU7 525-625, limits assumed, looked up): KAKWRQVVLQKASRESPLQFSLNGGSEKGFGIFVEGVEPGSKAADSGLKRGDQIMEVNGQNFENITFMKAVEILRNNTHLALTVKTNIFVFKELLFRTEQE

T5: HTRA4, P83105
T5 sequence (P83105 378-476, limits assumed, looked up): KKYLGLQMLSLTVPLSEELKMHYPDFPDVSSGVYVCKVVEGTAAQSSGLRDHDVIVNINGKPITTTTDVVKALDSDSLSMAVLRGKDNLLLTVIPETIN

T6: SNTB1, Q13884
T6 sequence (Q13884 107-205, limits assumed, looked up): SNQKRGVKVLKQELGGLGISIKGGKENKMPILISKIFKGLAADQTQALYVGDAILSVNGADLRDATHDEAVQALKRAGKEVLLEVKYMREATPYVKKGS

T7: MPP6, Q9NZW5
T7 sequence (Q9NZW5 125-219, limits assumed, looked up): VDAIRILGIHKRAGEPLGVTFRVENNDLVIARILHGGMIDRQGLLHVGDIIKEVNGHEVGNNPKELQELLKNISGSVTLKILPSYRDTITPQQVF

T8: LNX2_2, Q8N448
T8 sequence (Q8N448 334-432, limits assumed, looked up): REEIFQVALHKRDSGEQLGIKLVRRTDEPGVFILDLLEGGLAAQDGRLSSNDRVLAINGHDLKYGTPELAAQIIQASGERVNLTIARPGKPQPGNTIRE

T9: DLG3_3, Q92796
T9 sequence (Q92796 374-475, limits assumed, looked up): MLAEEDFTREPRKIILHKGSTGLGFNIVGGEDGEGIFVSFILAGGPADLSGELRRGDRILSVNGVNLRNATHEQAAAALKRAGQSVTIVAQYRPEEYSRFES

T10: APBA1_2, Q02410
T10 sequence (Q02410 742-832, limits assumed, looked up): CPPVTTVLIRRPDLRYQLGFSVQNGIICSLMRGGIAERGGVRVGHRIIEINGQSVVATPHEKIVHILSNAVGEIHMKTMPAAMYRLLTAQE

T11: LIN7A, O14910
T11 sequence (O14910 103-200, limits assumed, looked up): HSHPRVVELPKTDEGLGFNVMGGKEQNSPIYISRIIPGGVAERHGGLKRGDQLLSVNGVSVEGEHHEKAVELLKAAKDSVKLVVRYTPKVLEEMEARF

T12: ARHGAP21, Q5T5U3
T12 sequence (Q5T5U3 45-169, limits assumed, looked up): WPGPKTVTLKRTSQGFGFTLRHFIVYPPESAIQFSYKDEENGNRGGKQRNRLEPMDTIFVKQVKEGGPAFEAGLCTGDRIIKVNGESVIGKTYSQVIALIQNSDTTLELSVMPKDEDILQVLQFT


Key:
Assay in all cases: holdup assay
Parameters in all cases: key: below the threshold = too weak to quantify, mostly under pKd 3.1 to 4
Settings in all cases: plain residues with an end cap or a label only (N-terminal biotin on a linker: ado-ado)
NOS1, P29475 = target: NOS1, P29475
TJP1_3, Q07157 = target: TJP1_3, Q07157
GRASP, Q7Z6J2 = target: GRASP, Q7Z6J2
TJP2_1, Q9UDY2 = target: TJP2_1, Q9UDY2
TJP3_3, O95049 = target: T1, TJP3_3, O95049
APBA1_1, Q02410 = target: T2, APBA1_1, Q02410
NHERF4_1, Q86UT5-2 = target: NHERF4_1, Q86UT5-2
GRIP1_7, Q9Y3R0 = target: T3, GRIP1_7, Q9Y3R0
RAPGEF6, Q8TEU7 = target: T4, RAPGEF6, Q8TEU7
Inadl_9, Q8NI35 = target: Inadl_9, Q8NI35
DLG4_1, P78352 = target: DLG4_1, P78352
HTRA4, P83105 = target: T5, HTRA4, P83105
SNTB1, Q13884 = target: T6, SNTB1, Q13884
MAGI1_1, Q96QZ7 = target: MAGI1_1, Q96QZ7
NHERF2_2, Q15599 = target: NHERF2_2, Q15599
GRID2IP_1, A4D2P6 = target: GRID2IP_1, A4D2P6
Inadl_2, Q8NI35 = target: Inadl_2, Q8NI35
MPP6, Q9NZW5 = target: T7, MPP6, Q9NZW5
LNX2_2, Q8N448 = target: T8, LNX2_2, Q8N448
DLG3_3, Q92796 = target: T9, DLG3_3, Q92796
APBA1_2, Q02410 = target: T10, APBA1_2, Q02410
PICK1, Q9NRD5 = target: PICK1, Q9NRD5
LIN7A, O14910 = target: T11, LIN7A, O14910
ARHGAP21, Q5T5U3 = target: T12, ARHGAP21, Q5T5U3
NHERF4_4, Q86UT5 = target: NHERF4_4, Q86UT5
NHERF4_4, Q86UT5, sequence (Q86UT5 464-550): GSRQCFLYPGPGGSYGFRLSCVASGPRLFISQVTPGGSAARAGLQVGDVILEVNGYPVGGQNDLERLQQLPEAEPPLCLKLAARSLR

TJP2_1, Q9UDY2, sequence (Q9UDY2 24-128): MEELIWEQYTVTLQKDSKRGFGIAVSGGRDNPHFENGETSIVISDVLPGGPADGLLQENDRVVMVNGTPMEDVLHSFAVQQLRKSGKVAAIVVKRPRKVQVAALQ
Inadl_2, Q8NI35, sequence (Q8NI35 238-335): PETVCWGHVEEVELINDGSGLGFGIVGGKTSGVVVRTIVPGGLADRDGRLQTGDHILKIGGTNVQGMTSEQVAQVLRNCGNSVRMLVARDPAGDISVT
NOS1, P29475, sequence (P29475 9-101): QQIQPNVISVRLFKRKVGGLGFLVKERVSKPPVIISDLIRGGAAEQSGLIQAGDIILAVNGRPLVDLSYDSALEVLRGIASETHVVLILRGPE
TJP1_3, Q07157, sequence (Q07157 416-512): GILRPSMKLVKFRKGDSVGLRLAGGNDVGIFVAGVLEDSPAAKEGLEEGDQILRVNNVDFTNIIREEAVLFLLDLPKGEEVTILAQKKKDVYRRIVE
NHERF2_2, Q15599, sequence (Q15599 142-238): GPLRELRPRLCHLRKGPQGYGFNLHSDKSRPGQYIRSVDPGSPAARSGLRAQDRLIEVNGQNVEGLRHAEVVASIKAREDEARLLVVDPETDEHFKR
Inadl_9, Q8NI35, sequence (Q8NI35 1530-1615): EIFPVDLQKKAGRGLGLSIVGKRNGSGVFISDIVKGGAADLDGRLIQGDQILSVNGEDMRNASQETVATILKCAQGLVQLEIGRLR
GRID2IP_1, A4D2P6, sequence (A4D2P6 1-87): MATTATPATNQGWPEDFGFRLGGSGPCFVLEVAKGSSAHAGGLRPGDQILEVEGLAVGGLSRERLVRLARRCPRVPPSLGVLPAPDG
NHERF4_1, Q86UT5-2, sequence (Q86UT5 other isoform, or with tags, fused parts or gaps): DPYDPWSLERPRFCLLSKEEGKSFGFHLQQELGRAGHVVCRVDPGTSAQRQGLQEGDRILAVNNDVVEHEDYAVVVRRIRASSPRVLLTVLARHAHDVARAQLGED
PICK1, Q9NRD5, sequence (Q9NRD5 17-115): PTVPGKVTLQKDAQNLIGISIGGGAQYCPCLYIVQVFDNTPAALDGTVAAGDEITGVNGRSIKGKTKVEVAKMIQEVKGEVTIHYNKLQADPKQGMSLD
MAGI1_1, Q96QZ7, sequence (Q96QZ7 1-106): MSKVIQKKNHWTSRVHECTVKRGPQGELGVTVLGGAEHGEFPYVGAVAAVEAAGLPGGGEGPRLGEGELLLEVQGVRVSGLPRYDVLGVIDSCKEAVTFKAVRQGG
GRASP, Q7Z6J2, sequence (Q7Z6J2 96-193): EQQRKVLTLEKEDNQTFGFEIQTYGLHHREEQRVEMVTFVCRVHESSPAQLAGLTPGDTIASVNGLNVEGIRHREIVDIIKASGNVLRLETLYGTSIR
DLG4_1, P78352, sequence (P78352 62-152): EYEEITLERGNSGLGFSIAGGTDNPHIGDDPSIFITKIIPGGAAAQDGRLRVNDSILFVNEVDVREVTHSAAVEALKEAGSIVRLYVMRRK

Binder	pKd (NOS1, P29475)	pKd (TJP1_3, Q07157)	pKd (GRASP, Q7Z6J2)	pKd (TJP2_1, Q9UDY2)	pKd (TJP3_3, O95049)	pKd (APBA1_1, Q02410)	pKd (NHERF4_1, Q86UT5-2)	pKd (GRIP1_7, Q9Y3R0)	pKd (RAPGEF6, Q8TEU7)	pKd (Inadl_9, Q8NI35)	pKd (DLG4_1, P78352)	pKd (HTRA4, P83105)	pKd (SNTB1, Q13884)	pKd (MAGI1_1, Q96QZ7)	pKd (NHERF2_2, Q15599)	pKd (GRID2IP_1, A4D2P6)	pKd (Inadl_2, Q8NI35)	pKd (MPP6, Q9NZW5)	pKd (LNX2_2, Q8N448)	pKd (DLG3_3, Q92796)	other results
NASRTRITFV [MCM7, P33993]	3.84	below the threshold	4.53	5.34	3.53	below the threshold	4.12	below the threshold	below the threshold	4.11	4.76	4.59	5.13	below the threshold	3.63	below the threshold	4.61	below the threshold	5.43	4.47	pKd (APBA1_2, Q02410): 4.71; pKd (PICK1, Q9NRD5): 4.17; pKd (LIN7A, O14910): below the threshold; pKd (ARHGAP21, Q5T5U3): below the threshold; pKd (NHERF4_4, Q86UT5): below the threshold
GCQGETEDVL [PTH2R, P49190]	3.67	below the threshold	3.62	below the threshold	below the threshold	below the threshold	3.85	below the threshold	below the threshold	below the threshold	3.51	below the threshold	below the threshold	below the threshold	4.03	below the threshold	below the threshold	3.91	below the threshold	below the threshold	pKd (APBA1_2, Q02410): 3.52; pKd (PICK1, Q9NRD5): 3.99; pKd (LIN7A, O14910): below the threshold; pKd (ARHGAP21, Q5T5U3): 4.18; pKd (NHERF4_4, Q86UT5): below the threshold
SRPRPDDLEI [GJA1, P17302]	below the threshold	below the threshold	below the threshold	below the threshold	below the threshold	below the threshold	below the threshold	below the threshold	below the threshold	below the threshold	below the threshold	below the threshold	below the threshold	below the threshold	below the threshold	below the threshold	below the threshold	3.62	below the threshold	below the threshold	pKd (APBA1_2, Q02410): below the threshold; pKd (PICK1, Q9NRD5): below the threshold; pKd (LIN7A, O14910): below the threshold; pKd (ARHGAP21, Q5T5U3): 3.74; pKd (NHERF4_4, Q86UT5): below the threshold
NVYGTESVKI [GRIA3, P42263]	3.56	below the threshold	below the threshold	below the threshold	below the threshold	below the threshold	3.57	below the threshold	below the threshold	below the threshold	below the threshold	4	below the threshold	below the threshold	3.47	below the threshold	below the threshold	below the threshold	3.74	below the threshold	pKd (APBA1_2, Q02410): below the threshold; pKd (PICK1, Q9NRD5): below the threshold; pKd (LIN7A, O14910): below the threshold; pKd (ARHGAP21, Q5T5U3): 4.38; pKd (NHERF4_4, Q86UT5): 3.95
ETSLVKGIDI [DENND5A, Q6IQ26]	3.52	below the threshold	below the threshold	below the threshold	below the threshold	below the threshold	3.59	below the threshold	below the threshold	3.63	below the threshold	4.13	below the threshold	3.55	3.48	below the threshold	below the threshold	below the threshold	4.13	below the threshold	pKd (APBA1_2, Q02410): 3.47; pKd (PICK1, Q9NRD5): below the threshold; pKd (LIN7A, O14910): below the threshold; pKd (ARHGAP21, Q5T5U3): 4.25; pKd (NHERF4_4, Q86UT5): 3.87
ANGLMQTSKL [SSTR5, P35346]	below the threshold	below the threshold	4.68	below the threshold	below the threshold	below the threshold	4.3	below the threshold	below the threshold	below the threshold	below the threshold	3.7	below the threshold	below the threshold	4.64	below the threshold	below the threshold	below the threshold	below the threshold	below the threshold	pKd (APBA1_2, Q02410): below the threshold; pKd (PICK1, Q9NRD5): 4.08; pKd (LIN7A, O14910): below the threshold; pKd (ARHGAP21, Q5T5U3): 3.97; pKd (NHERF4_4, Q86UT5): below the threshold
